Assay results from the supplement of paper PMC10567573.
± gives the standard deviation.

Experiment: protein stability index of a GFP-peptide fusion (GPS, HEK-293T) (PSI 1-6); higher = more stable
[1] = treatment: DMSO, c terminus: a fixed tail appended
[2] = treatment: MLN4924 1 uM, 8 h, c terminus: a fixed tail appended
[3] = treatment: DMSO, c terminus: native
[4] = treatment: MLN4924 1 uM, 8 h, c terminus: native
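Also: 24-mer peptide tiles fused after GFP, lentivirally expressed, FACS-sorted into six equal bins by GFP/DsRed ratio, decoded by Illumina sequencing, PSI is the read-weighted mean bin number.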

Row | Sequence | protein stability index [1] | protein stability index [2] | protein stability index [3] | protein stability index [4]
1 | TYSKFQPQSPDFLDITNPKAVLEN [UFD1] | 3.92 ± 0.18 | 4.24 ± 0.076 |  | 
2 | IAKNLVEKGILTTEKQNFLLFDMT [GOLPH3L] | 2.06 ± 0.18 | 2.15 ± 0.22 |  | 
3 | EYMKNLLKVGGILVMPLEEKLTKI [PCMTD2] | 2.73 ± 0.36 | 2.13 ± 0.33 |  | 
4 | VYSLQDFDTLATVGTGTFGRVHLV [PRKX] | 2.42 ± 0.079 | 2.42 ± 0.37 |  | 
5 | GHIILNSMHKYQPRLHIVKADENN [TBX5] | 2.82 ± 0.48 | 2.95 ± 0.018 |  | 
6 | SSTQLNELLLFAVGFIMAGTPMAL [OR3A1] | 3.05 ± 0.3 | 3.04 ± 0.61 |  | 
7 | PWERAMGVDPQQKMELGIDLLAYG [MYOZ1] | 2.97 ± 0.28 | 2.94 ± 0.13 |  | 
8 | RARRTEISKNSEKKMESEEDSNWE [GOLPH3L] | 5.43 ± 0.49 | 5.35 ± 0.44 |  | 
9 | VPECRLAEDLGNLWENTRFTDCSF [SPOPL] | 2.74 ± 0.34 | 3.21 ± 0.44 |  | 
10 | LPELLLGALPVGSNLTSNLASLVS [RETREG3] | 2.17 ± 0.2 | 2.17 ± 0.28 |  | 
11 | TSGVAAVQDWYHFHYVDILALLPA [SCNN1D] | 2.42 ± 0.44 | 2.35 ± 0.24 |  | 
12 | QIKDFKEKIQQDADSVITVGRGEV [ACBD3] | 5.06 ± 0.18 | 5.06 ± 0.32 |  | 
13 | TNVRLQPAATWNLEEKRLTWRLPD [FCHO1] | 3.27 ± 0.32 | 3.34 ± 0.24 |  | 
14 | TLSPHQYHSVHGVGMVPEWSDNS [TBX5] |  |  | 4.01 ± 0.29 | 3.8 ± 0.14
15 | TSSASVTTTSNASGRRTSDVRRP [KRT13] |  |  | 2.88 ± 0.77 | 3.58 ± 0.76
16 | MSQTVQRMLVAASWACAFTNALTH [OR3A1] | 3.3 ± 0.22 | 3.31 ± 0.23 |  | 
17 | VFLASGAVSVMKKCRKLEDPQSSS [SLC19A2] | 2.81 ± 0.043 | 2.98 ± 0.15 |  | 
18 | IQSRVQELHPESGEEAVTLVEDMQ [ZNF263] | 5.42 ± 0.18 | 5.44 ± 0.11 |  | 
19 | VVPVLVFPPDLVFRADQRSGPRQL [MOSPD3] | 2.27 ± 0.38 | 2.41 ± 0.25 |  | 
20 | QVDVGDVNDNAPEVLLASLANPVL [PCDHGC5] | 4.07 ± 0.28 | 4.21 ± 0.31 |  | 
21 | EALSVPLSLCVSSHLALPAQHHWE [CLPTM1] | 2.15 ± 0.27 | 2.2 ± 0.29 |  | 
22 | VLRREISELRTKVQEQQKQLQDQD [FBXO28] | 4.73 ± 0.17 | 4.66 ± 0.23 |  | 
23 | QQLNDYEQLLDVKLALDMEISAYR [LMNB1] | 2.95 ± 0.32 | 2.9 ± 0.31 |  | 

Row | Sequence | protein stability index [1] | protein stability index [2] | protein stability index [3] | protein stability index [4]
24 | IFGSNKWTTEQQQRFHEICSNLVK [ARL6IP1] | 2.98 ± 0.13 | 3.03 ± 0.14 |  | 
25 | DPQILQMLKEEHQIILENQKNFGL [RAD54B] | 3.25 ± 0.3 | 3.812 ± 0.008 |  | 
26 | LLDLQPDFSSGGAAAAAAPAPPPP [SNAP91] | 4.68 ± 0.23 | 4.77 ± 0.22 |  | 
27 | KEILRTLQDVFCWLPLATLIDEKV [PPEF2] | 2.46 ± 0.25 | 3.03 ± 0.57 |  | 
28 | MLENYSNLVSVGYQAGKPDALTKL [ZNF649] | 2.72 ± 0.2 | 2.83 ± 0.18 |  | 
29 | GDLSPGHGASAPSVSREARQTVPP [PWWP2B] | 5.03 ± 0.17 | 5.25 ± 0.077 |  | 
30 | TSKNSSTQDPSQPNSTKNQSLPKA [LCOR] | 5.31 ± 0.16 | 5.44 ± 0.12 |  | 
31 | IHLREDLVQDQDLEAIRKQDLVEL [ZER1] | 4.5 ± 0.096 | 4.56 ± 0.28 |  | 
32 | CSMSATFTLNFFRSGIQFGSWGSF [CLCN6] | 3.01 ± 0.57 | 2.75 ± 0.14 |  | 
33 | VFSTMAGLEEADAEVSVISEADPQ [FBF1] | 5.18 ± 0.36 | 5.26 ± 0.25 |  | 
34 | NGADVNIQSKDGKSPLHMTAVHGR [ANKRD44] | 4.44 ± 0.22 | 4.46 ± 0.11 |  | 
35 | ICCWSFYGQGRKIAEVCCTSIVYA [KCTD10] | 2.98 ± 0.44 | 3.44 ± 0.54 |  | 
36 | PAMAASKALGSDLDSSLASLVGNL [SNAP91] | 4.06 ± 0.34 | 3.95 ± 0.34 |  | 
37 | AASSAKMGLVETKLAIIPGGGGTQ [AUH] | 3.83 ± 0.66 | 4.61 ± 0.51 |  | 
38 | FRRFAVHGDARATGREMHGKNWSK [TPPP] | 3.62 ± 0.12 | 3.65 ± 0.33 |  | 
39 | VHHLPLSTEKVVQETVLVEERRVV [EPB41L3] | 4.3 ± 0.14 | 4.43 ± 0.27 |  | 
40 | DQNRDGFIDKEDLKDTYASLGKTN [MYL5] | 5.12 ± 0.092 | 5.2 ± 0.14 |  | 
41 | WKVRAEKEACQREKELPAAVHPFH [ZBED2] | 3.9 ± 0.18 | 3.93 ± 0.15 |  | 
42 | ACGGTRDQLFMQEKARQLLGRLKP [MYBL2] | 3.39 ± 0.54 | 3.29 ± 0.38 |  | 
43 | LAQTRAEGQRQAQEYEALLNIKVK [KRT18] | 4.26 ± 0.38 | 4.17 ± 0.15 |  | 
44 | APFLSQADDPDDGPVPGTPGLPGS [SPNS1] | 5.55 ± 0.34 | 5.43 ± 0.21 |  | 
45 | LTSADRETAEEVSARIVQVVTAEA [MAP2] | 4.86 ± 0.28 | 4.89 ± 0.42 |  | 
46 | GHMLQHHGNSGHPLVLSYIDLSAW [HDAC6] | 2.24 ± 0.33 | 1.85 ± 0.19 |  | 

Row | Sequence | protein stability index [1] | protein stability index [2] | protein stability index [3] | protein stability index [4]
47 | TLGGKAFHITNDEPIPFWTFLSRI [NSDHL] | 2.19 ± 0.096 | 2.28 ± 0.22 |  | 
48 | PVHLIDKLPLPVTIKSHLKSFSMA [RAB40C] | 2.3 ± 0.081 | 2.34 ± 0.039 |  | 
49 | SFNHNAHLTVHKRIHTGERPYMCK [ZNF8] | 2.76 ± 0.2 | 2.9 ± 0.22 |  | 
50 | IFDEDHDEMVIVKDIDMFSMCEHH [GCH1] | 3.16 ± 0.24 | 3.31 ± 0.13 |  | 
51 | SNPLAREIFRRHFRQLCYQETPGP [ZSCAN9] | 2.28 ± 0.039 | 2.52 ± 0.097 |  | 
52 | LYPREGKYNHAACFGLQPGCLLPD [NLN] | 2.96 ± 0.33 | 3.1 ± 0.44 |  | 
53 | ADVTLDPETAHPNLVLSEDRKSVK [TRIM39] | 5.38 ± 0.16 | 5.37 ± 0.43 |  | 
54 | CYRSQDYGGRSVAPQNSFSAKLAP [KCNK9] | 3.04 ± 0.092 | 3.19 ± 0.36 |  | 
55 | ALKKRSGKKDKHSQSPRAAGPREG [PBXIP1] | 4.64 ± 0.14 | 4.83 ± 0.34 |  | 
56 | KRQVPTEQARAYAEKNCMTFFEVS [RAB40C] | 3.16 ± 0.36 | 3.29 ± 0.37 |  | 
57 | KFSPFGQWWASVGMDDFLGVYSMP [TLE6] | 2.62 ± 0.67 | 2.35 ± 0.4 |  | 
58 | IGSSVMAASLVTMGIVNLNIHMNF [SLC2A12] | 3.05 ± 0.24 | 3.13 ± 0.17 |  | 
59 | AEEPNAAVPDEIPPLEGDEDASRM [HSP90AB1] | 5.74 ± 0.15 | 5.65 ± 0.15 |  | 
60 | GAAGRSHHLDEDEERERIERVRRI [KCTD10] | 5.31 ± 0.23 | 5.07 ± 0.46 |  | 
61 | DTINRSVLDFDFEKLCSISLSHIN [USP39] | 2.6 ± 0.32 | 2.79 ± 0.24 |  | 
62 | MVVIHKEIPTGKKDHECSECGKTF [ZNF232] | 3.07 ± 0.4 | 3.28 ± 0.2 |  | 
63 | GGYAIAVVLLQGAELLLAARLLGA [TSPAN10] | 2.81 ± 0.53 | 2.96 ± 0.32 |  | 
64 | GNLSVLDVGCISVTVPSMLSRLLS [OR3A1] | 2.09 ± 0.49 | 2.29 ± 0.18 |  | 
65 | WAQLEAPARLLLQALQAGPEGARR [FANCE] | 2.78 ± 0.37 | 3.08 ± 0.29 |  | 
66 | AIIGWLLTTCTSNVAASNAKLALF [INTS3] | 3.13 ± 0.21 | 3 ± 0.45 |  | 
67 | IADRAAHDESPGNNVVDISVPPTT [RAB11B] | 5.43 ± 0.24 | 5.21 ± 0.13 |  | 
68 | MNGDSRAAVVTSPPPTTAPHKERY [ADD1] | 4.89 ± 0.26 | 5.07 ± 0.22 |  | 
69 | AELFSYVLQDRAAKGSLGTQIGFA [FEM1A] | 2.16 ± 0.21 | 2.11 ± 0.23 |  | 

Row | Sequence | protein stability index [1] | protein stability index [2] | protein stability index [3] | protein stability index [4]
70 | SLSHTELEAAEVILEHAHRGEQTT [FCHSD1] | 5.22 ± 0.26 | 5.28 ± 0.11 |  | 
71 | NIPQMADTLFERATNSSWVVVFKA [SNAP91] | 2.27 ± 0.65 | 2.3 ± 0.82 |  | 
72 | VSNDSHTWVTVKNGSGDMIFEGNS [CPXM2] | 3.79 ± 0.16 | 4.32 ± 0.3 |  | 
73 | LHDCAESGSLEILQLLLGCKARME [FEM1A] | 2.41 ± 0.31 | 2.52 ± 0.29 |  | 
74 | ALSGKYSREFFNRRGELRHITKLK [SRPK2] | 2.87 ± 0.15 | 3.28 ± 0.27 |  | 
75 | PFSFGTLSSWELEAWYEDLQEVLS [DDIT3] | 2.37 ± 0.54 | 2.78 ± 0.21 |  | 
76 | FPSAGQAQAAVQGPVGTDFKPLNS [ZNF207] | 3.67 ± 0.45 | 4.16 ± 0.4 |  | 
77 | RVAIAHYQDDPDLRFLLDQVQLGL [TSPAN10] | 2.28 ± 0.25 | 2.36 ± 0.25 |  | 
78 | EDLMPLAAAYGHALEQYEGESWRE [P3H4] | 4.59 ± 0.53 | 4.86 ± 0.17 |  | 
79 | TLVNFHLKRSIPQVSPVRRAPSRR [CPN1] | 2.88 ± 0.28 | 3.13 ± 0.23 |  | 
80 | SIKPEASQMPPPAGGTSDDPEPSG [SCNN1D] | 5.43 ± 0.15 | 5.57 ± 0.28 |  | 
81 | IHPDEDISLEERRAQLPKYQRNLP [ZNF207] | 4.19 ± 0.27 | 4.46 ± 0.31 |  | 
82 | KQKNAYIGTQGPLENTYRDFWLMV [PTPN9] | 2.44 ± 0.51 | 2.4 ± 0.36 |  | 
83 | NQRIIHRDMKPDNILLDEHDTWLS [STK32A] | 3.71 ± 0.33 | 3.63 ± 0.27 |  | 
84 | TSPVYRGSSSGPSSPARVSTTPR [MTUS2] |  |  | 4.45 ± 0.2 | 4.48 ± 0.13
85 | YKVNTPMLQSFINYCLLFLIYTVM [SLC35F2] | 2.35 ± 0.8 | 2.44 ± 0.38 |  | 
86 | EKEQEKMRQDLEEERVALNTEIEK [PKD2L1] | 5.45 ± 0.27 | 5.64 ± 0.15 |  | 
87 | EDIALNKHRSRRKWCFWNSSPAVA [RHOBTB1] | 2.31 ± 0.22 | 2.28 ± 0.23 |  | 
88 | VEWAKYIPAFCELPLDDQVALLRA [HNF4A] | 2.42 ± 0.64 | 2.44 ± 0.42 |  | 
89 | DGKGKINKEYIKRLLMSQADKMTA [MYL5] | 2.97 ± 0.25 | 3.13 ± 0.33 |  | 
